Assay results taken from IntAct's records for PubMed 14673118.

B1: Thioredoxin (Synechocystis sp. (strain PCC 6803 / Kazusa)), P52231 (parent)
chain: MSATPQVSDASFKEDVLDSELPVLVDFWAPWCGPCRMVAPVVDEISQQYEGKVKVVKLNTDENPNTASQYGIRSIPTLMIFKGGQRVDMVVGAVPKTTLASTLEKYL
partner: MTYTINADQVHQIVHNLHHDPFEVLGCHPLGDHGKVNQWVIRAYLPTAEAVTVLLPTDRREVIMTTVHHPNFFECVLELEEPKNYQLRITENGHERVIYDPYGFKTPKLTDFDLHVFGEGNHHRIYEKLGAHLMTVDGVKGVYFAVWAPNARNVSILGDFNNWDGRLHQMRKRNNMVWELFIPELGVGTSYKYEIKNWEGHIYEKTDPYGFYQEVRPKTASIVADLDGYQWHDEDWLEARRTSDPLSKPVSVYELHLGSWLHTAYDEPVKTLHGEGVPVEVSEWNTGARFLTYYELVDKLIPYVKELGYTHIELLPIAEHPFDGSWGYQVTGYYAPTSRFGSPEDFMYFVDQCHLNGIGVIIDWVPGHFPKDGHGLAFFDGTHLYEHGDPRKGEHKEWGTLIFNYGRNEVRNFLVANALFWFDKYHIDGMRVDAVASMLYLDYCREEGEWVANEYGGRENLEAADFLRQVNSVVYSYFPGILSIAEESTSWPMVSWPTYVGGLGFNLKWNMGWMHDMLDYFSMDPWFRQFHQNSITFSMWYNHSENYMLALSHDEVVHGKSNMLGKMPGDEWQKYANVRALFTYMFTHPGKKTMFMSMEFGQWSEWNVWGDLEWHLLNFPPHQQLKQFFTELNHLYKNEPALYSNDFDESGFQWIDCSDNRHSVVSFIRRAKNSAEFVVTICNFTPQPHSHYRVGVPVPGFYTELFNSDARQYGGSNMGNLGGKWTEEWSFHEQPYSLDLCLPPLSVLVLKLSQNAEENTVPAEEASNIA
B2: Thioredoxin (Synechocystis sp. (strain PCC 6803 / Kazusa)), P52231 (parent)
chain: B1 chain
B3: Thioredoxin (Synechocystis sp. (strain PCC 6803 / Kazusa)), P52231 (parent)
chain: B1 chain
partner: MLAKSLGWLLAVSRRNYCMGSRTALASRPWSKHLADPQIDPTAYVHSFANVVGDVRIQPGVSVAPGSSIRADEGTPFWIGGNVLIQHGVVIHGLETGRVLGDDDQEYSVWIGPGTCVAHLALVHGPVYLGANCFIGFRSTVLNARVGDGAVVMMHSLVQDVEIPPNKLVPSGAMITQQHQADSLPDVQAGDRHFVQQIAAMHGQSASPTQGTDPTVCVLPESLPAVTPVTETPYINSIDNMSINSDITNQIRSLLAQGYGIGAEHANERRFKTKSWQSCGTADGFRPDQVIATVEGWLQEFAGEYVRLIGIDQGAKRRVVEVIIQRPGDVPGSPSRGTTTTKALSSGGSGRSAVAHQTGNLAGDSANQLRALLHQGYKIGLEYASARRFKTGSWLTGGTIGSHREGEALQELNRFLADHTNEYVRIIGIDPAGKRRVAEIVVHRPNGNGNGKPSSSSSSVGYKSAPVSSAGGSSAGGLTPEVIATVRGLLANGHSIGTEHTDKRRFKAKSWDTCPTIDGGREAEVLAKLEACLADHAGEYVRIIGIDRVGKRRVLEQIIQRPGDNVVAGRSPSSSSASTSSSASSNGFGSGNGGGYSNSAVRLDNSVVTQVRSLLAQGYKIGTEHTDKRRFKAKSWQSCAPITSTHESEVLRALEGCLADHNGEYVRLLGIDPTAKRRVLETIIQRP
B4: Thioredoxin (Synechocystis sp. (strain PCC 6803 / Kazusa)), P52231 (parent)
chain: B1 chain
partner: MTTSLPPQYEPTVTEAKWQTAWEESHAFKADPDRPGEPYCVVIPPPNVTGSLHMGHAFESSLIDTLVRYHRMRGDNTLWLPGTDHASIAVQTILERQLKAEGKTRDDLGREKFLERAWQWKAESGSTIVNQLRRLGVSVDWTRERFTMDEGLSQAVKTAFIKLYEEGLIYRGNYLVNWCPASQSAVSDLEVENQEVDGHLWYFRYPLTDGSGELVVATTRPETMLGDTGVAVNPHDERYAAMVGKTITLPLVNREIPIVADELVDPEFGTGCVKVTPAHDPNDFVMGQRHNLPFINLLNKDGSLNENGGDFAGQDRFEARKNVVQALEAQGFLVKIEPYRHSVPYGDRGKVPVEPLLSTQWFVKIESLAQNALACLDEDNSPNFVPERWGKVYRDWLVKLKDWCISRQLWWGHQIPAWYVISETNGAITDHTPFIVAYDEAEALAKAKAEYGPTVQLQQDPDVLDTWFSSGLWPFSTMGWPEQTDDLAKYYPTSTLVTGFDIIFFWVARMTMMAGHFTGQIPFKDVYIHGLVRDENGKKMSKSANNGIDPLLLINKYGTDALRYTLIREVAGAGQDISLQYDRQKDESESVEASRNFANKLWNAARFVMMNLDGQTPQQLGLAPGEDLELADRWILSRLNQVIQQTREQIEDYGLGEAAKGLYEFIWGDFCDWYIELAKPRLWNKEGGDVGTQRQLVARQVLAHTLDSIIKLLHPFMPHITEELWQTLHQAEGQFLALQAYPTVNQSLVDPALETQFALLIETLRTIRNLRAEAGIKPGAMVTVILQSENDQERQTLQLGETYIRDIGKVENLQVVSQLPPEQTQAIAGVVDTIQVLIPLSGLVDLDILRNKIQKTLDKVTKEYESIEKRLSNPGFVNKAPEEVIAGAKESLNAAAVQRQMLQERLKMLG
B5: Thioredoxin (Synechocystis sp. (strain PCC 6803 / Kazusa)), P52231 (parent)
chain: B1 chain
partner: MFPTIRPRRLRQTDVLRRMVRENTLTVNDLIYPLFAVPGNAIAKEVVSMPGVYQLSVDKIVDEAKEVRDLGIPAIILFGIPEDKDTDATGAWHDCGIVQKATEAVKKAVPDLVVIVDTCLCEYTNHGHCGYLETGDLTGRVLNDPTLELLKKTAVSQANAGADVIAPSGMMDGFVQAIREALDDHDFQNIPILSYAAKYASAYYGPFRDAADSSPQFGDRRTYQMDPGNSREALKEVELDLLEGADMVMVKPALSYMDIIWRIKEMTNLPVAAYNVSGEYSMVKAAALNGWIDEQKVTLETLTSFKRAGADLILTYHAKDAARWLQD
B6: Thioredoxin (Synechocystis sp. (strain PCC 6803 / Kazusa)), P52231 (parent)
chain: B1 chain
partner: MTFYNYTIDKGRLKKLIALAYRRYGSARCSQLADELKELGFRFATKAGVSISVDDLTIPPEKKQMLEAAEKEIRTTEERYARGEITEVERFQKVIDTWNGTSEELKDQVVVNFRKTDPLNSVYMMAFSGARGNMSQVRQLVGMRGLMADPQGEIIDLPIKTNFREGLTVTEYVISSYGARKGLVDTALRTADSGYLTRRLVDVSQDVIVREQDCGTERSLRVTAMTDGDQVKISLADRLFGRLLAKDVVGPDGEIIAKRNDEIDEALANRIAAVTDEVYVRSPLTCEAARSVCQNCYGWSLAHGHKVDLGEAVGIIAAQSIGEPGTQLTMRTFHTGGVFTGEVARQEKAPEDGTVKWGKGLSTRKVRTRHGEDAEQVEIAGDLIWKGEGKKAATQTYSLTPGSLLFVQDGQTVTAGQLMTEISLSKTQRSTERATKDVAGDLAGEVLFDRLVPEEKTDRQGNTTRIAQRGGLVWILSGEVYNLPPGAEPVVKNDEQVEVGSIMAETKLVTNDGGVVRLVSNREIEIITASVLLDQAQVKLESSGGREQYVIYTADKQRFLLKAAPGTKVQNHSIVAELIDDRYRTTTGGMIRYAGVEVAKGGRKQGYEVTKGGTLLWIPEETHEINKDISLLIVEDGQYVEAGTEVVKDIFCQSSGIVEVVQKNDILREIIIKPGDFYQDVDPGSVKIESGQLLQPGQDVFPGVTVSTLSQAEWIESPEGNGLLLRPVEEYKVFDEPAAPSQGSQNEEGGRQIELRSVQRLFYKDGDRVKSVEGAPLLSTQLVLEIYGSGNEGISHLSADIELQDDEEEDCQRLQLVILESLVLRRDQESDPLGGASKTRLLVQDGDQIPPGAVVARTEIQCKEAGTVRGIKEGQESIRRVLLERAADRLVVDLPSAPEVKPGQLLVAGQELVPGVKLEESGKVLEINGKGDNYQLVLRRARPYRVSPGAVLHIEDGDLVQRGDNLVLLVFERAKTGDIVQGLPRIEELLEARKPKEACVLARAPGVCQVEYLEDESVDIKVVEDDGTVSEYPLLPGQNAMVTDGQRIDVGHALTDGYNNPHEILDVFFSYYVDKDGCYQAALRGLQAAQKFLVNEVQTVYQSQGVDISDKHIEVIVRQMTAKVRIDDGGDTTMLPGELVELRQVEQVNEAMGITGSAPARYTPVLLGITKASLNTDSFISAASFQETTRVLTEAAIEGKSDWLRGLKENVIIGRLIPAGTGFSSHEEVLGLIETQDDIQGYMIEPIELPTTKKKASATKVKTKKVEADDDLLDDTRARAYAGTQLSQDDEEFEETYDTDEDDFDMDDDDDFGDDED
B7: Thioredoxin (Synechocystis sp. (strain PCC 6803 / Kazusa)), P52231 (parent)
chain: B1 chain
partner: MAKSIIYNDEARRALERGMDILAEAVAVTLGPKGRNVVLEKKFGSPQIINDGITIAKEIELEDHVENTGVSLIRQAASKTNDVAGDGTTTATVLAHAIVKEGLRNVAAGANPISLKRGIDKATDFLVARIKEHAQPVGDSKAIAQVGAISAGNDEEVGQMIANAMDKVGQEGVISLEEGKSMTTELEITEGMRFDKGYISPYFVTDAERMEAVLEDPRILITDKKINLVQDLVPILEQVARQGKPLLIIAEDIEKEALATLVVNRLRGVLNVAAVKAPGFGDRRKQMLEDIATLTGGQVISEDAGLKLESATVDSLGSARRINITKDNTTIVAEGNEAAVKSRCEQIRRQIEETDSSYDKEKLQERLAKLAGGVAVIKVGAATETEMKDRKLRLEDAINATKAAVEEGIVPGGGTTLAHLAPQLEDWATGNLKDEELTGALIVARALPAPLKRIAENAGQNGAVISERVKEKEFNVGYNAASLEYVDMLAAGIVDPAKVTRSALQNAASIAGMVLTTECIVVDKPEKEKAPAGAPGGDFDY

Variants of: B1
Conditions: with glgb_syny3 glgB

Variant | effect of a mutation on the interaction
MSATPQVSDASFKEDVLDSELPVLVDFWAPWCGPSRMVAPVVDEISQQYEGKVKVVKLNTDENPNTASQYGIRSIPTLMIFKGGQRVDMVVGAVPKTTLASTLEKYL | increasing interaction

Variants of: B2
Conditions: with glts_syny3 gltS

Variant | effect of a mutation on the interaction
MSATPQVSDASFKEDVLDSELPVLVDFWAPWCGPSRMVAPVVDEISQQYEGKVKVVKLNTDENPNTASQYGIRSIPTLMIFKGGQRVDMVVGAVPKTTLASTLEKYL | increasing interaction

Variants of: B2
Conditions: with rbl_syny3 cbbL

Variant | effect of a mutation on the interaction
MSATPQVSDASFKEDVLDSELPVLVDFWAPWCGPSRMVAPVVDEISQQYEGKVKVVKLNTDENPNTASQYGIRSIPTLMIFKGGQRVDMVVGAVPKTTLASTLEKYL | increasing interaction

Variants of: B2
Conditions: with eftu_syny3 tuf

Variant | effect of a mutation on the interaction
MSATPQVSDASFKEDVLDSELPVLVDFWAPWCGPSRMVAPVVDEISQQYEGKVKVVKLNTDENPNTASQYGIRSIPTLMIFKGGQRVDMVVGAVPKTTLASTLEKYL | increasing interaction

Variants of: B2
Conditions: with gltb_syny3 gltB

Variant | effect of a mutation on the interaction
MSATPQVSDASFKEDVLDSELPVLVDFWAPWCGPSRMVAPVVDEISQQYEGKVKVVKLNTDENPNTASQYGIRSIPTLMIFKGGQRVDMVVGAVPKTTLASTLEKYL | increasing interaction

Variants of: B2
Conditions: with apce_syny3 apcE

Variant | effect of a mutation on the interaction
MSATPQVSDASFKEDVLDSELPVLVDFWAPWCGPSRMVAPVVDEISQQYEGKVKVVKLNTDENPNTASQYGIRSIPTLMIFKGGQRVDMVVGAVPKTTLASTLEKYL | increasing interaction

Variants of: B3
Conditions: with ccmm_syny3 ccmM

Variant | effect of a mutation on the interaction
MSATPQVSDASFKEDVLDSELPVLVDFWAPWCGPSRMVAPVVDEISQQYEGKVKVVKLNTDENPNTASQYGIRSIPTLMIFKGGQRVDMVVGAVPKTTLASTLEKYL | increasing interaction

Variants of: B4
Conditions: with syv_syny3 valS

Variant | effect of a mutation on the interaction
MSATPQVSDASFKEDVLDSELPVLVDFWAPWCGPSRMVAPVVDEISQQYEGKVKVVKLNTDENPNTASQYGIRSIPTLMIFKGGQRVDMVVGAVPKTTLASTLEKYL | increasing interaction

Variants of: B5
Conditions: with hem2_syny3 hemB

Variant | effect of a mutation on the interaction
MSATPQVSDASFKEDVLDSELPVLVDFWAPWCGPSRMVAPVVDEISQQYEGKVKVVKLNTDENPNTASQYGIRSIPTLMIFKGGQRVDMVVGAVPKTTLASTLEKYL | increasing interaction

Variants of: B6
Conditions: with rpoc2_syny3 rpoC2, P73334

Variant | effect of a mutation on the interaction
MSATPQVSDASFKEDVLDSELPVLVDFWAPWCGPSRMVAPVVDEISQQYEGKVKVVKLNTDENPNTASQYGIRSIPTLMIFKGGQRVDMVVGAVPKTTLASTLEKYL | increasing interaction

Variants of: B7
Conditions: with ch601_syny3 groEL1, Q05972

Variant | effect of a mutation on the interaction
MSATPQVSDASFKEDVLDSELPVLVDFWAPWCGPSRMVAPVVDEISQQYEGKVKVVKLNTDENPNTASQYGIRSIPTLMIFKGGQRVDMVVGAVPKTTLASTLEKYL | increasing interaction
